{
  "source": "patent US20250101394",
  "about": "“NOVEL CRISPR-CAS12I SYSTEMS AND USES THEREOF” (Huidagene Therapeutics (Singapore) PTE. LTD., published 2025)",
  "conditions_in_all_cases": "tags: N-term SV40 NLS, C-term NP NLS",
  "key": {"[1]": {"molecular_target": "T1, xCas12i (SiCas12i, Cas12i12) (unidentified)", "T1 chain": "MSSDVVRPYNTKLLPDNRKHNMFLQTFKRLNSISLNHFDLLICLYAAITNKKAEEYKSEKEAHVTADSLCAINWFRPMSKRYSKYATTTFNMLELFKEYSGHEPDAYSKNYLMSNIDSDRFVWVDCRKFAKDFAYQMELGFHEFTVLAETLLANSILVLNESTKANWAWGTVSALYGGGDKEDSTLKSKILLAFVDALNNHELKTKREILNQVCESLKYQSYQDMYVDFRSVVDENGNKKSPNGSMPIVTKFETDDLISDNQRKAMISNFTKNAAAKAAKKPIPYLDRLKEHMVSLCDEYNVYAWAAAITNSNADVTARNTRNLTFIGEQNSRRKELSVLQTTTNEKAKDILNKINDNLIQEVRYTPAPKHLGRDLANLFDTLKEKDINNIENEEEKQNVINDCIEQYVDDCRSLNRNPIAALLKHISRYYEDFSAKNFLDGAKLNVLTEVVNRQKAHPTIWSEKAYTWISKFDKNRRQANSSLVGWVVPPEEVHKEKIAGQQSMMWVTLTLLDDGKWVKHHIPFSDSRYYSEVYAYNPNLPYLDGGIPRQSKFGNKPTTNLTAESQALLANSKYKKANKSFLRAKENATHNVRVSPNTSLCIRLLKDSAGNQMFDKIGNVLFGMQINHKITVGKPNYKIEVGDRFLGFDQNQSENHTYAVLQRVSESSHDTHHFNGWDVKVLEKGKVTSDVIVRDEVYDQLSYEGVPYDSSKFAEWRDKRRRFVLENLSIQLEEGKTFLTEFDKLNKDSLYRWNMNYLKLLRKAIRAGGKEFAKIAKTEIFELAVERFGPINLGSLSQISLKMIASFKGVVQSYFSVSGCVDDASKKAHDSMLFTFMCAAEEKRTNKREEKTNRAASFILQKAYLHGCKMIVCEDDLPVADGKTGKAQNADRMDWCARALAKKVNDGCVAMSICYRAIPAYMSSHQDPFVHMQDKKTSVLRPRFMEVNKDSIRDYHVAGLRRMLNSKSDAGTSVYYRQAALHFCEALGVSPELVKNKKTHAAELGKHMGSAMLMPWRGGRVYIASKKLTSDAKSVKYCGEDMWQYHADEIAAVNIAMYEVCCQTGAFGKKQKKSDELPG", "experiment": "cell_activity; 5' TTN PAM; EGFP reporter HEK293T; DR-T1", "excerpt": "To vary xCas12i's dsDNA cleavage activity and expand its scope of PAM site recognition, the applicant engineered xCas12i protein via mutagenesis and screened for mutants with higher dsDNA cleavage activity and broader PAM using a dual plasmid fluorescent reporter system similar to the dual plasmid fluorescent reporter system in Example 1, except that the EGxxxxFP-targeting guide RNA (SEQ ID NO: 51; “crON”) coding sequence operably linked to U6 promoter was not located on the expression plasmid together with the xCas12i (or its mutant) coding sequence (SEQ ID NO: 31) but located on the reporter plasmid together with the BFP-P2A-EGxxxxFP coding sequence (SEQ ID NO: 41) (referring to “On-Target Reporter” in FIG. 1B). […] The applicant then individually transfected the expression plasmid and the reporter plasmid into HEK293T cells and analyzed them by FACS (FIG. 1B). […]"}, "[2]": {"molecular_target": "T2, Cas12Max (xCas12i-N243R, v1.1) (synthetic construct)", "T2 chain": "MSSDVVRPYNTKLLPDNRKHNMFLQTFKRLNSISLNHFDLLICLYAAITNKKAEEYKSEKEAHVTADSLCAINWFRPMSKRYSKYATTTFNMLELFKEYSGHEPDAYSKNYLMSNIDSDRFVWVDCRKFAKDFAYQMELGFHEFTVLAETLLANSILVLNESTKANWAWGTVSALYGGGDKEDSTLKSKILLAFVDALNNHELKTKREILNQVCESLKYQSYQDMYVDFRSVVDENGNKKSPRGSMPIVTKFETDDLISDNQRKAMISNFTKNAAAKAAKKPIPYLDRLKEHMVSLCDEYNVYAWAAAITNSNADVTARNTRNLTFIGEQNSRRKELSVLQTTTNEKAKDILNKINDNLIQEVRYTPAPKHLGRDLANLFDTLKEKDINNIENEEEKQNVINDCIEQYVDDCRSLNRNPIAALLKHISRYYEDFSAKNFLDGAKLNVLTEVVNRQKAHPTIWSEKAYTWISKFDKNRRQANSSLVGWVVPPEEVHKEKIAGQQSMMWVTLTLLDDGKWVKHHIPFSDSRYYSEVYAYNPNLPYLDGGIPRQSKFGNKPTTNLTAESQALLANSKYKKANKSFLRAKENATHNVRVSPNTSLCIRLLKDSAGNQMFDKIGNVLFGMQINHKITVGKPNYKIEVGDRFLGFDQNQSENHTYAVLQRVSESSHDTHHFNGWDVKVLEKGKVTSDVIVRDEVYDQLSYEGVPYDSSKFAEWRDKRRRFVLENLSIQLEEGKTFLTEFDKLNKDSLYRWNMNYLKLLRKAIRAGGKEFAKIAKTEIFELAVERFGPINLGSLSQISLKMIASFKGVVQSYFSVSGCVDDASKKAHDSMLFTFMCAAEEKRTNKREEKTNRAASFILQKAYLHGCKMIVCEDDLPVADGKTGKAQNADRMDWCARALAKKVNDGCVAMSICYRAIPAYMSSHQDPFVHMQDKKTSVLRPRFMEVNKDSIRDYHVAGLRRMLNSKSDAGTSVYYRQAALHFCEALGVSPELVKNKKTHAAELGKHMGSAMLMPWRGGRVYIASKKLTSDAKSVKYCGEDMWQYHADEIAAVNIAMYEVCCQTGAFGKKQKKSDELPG", "experiment": "cell_activity; 5' TTN PAM; EGFP reporter HEK293T"}, "xCas12i-A165R": {"molecular_target": "T3, xCas12i-A165R (synthetic construct, A165R)", "T3 chain": "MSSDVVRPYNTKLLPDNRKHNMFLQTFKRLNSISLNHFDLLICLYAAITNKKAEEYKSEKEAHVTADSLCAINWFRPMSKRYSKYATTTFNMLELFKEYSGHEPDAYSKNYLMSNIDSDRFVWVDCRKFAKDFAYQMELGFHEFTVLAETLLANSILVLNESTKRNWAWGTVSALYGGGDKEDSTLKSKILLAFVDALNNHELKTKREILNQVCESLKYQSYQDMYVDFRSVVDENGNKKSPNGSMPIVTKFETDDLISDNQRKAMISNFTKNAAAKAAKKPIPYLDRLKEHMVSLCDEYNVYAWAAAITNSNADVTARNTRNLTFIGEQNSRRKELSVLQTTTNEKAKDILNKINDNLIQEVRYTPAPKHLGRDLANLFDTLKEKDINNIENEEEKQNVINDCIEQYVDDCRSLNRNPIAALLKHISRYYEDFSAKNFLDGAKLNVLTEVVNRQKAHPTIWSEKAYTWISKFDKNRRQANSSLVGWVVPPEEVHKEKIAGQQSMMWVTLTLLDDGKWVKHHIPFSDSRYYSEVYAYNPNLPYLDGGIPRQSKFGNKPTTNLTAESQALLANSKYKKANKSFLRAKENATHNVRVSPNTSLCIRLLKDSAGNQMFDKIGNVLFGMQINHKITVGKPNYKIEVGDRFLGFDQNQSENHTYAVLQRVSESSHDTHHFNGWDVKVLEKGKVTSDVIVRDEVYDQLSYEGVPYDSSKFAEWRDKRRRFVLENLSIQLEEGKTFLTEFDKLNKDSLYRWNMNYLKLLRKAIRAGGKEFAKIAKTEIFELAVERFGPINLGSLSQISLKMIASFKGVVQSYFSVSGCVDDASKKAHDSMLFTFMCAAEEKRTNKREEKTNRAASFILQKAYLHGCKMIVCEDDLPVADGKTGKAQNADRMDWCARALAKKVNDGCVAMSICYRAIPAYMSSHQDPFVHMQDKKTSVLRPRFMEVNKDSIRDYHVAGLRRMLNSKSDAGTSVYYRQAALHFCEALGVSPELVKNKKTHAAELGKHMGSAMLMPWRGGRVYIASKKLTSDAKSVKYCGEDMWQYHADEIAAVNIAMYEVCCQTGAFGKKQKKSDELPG", "experiment": "cell_activity; 5' TTN PAM; EGFP reporter HEK293T"}},
  "data": [
    {"binder": "crEGFP guide with DR-T1 ; EGxxxxFP insertion target (ssRNA ; dsDNA) RNA: AUGACUCAGAAAUGUGUCCCCAGUUGACACCCAUUACAGUAGGAGCAUAC DNA 1: GGATCCGTGTCTTTCCCATTACAGTAGGAGCATACGGGAGACAAGCTTTG DNA 2: CAAAGCTTGTCTCCCGTATGCTCCTACTGTAATGGGAAAGACACGGATCC", "values": [
      {"measurement": "binding signal", "setting": "[1]", "value": "1 fold of WT"},
      {"measurement": "binding signal", "setting": "[2]", "value": "3.61 fold of WT"},
      {"measurement": "binding signal", "setting": "xCas12i-A165R", "value": "3.15 fold of WT"}
    ]}
  ]
}
